Changes are numbered by the printed parent chain. Where two headings read alike, the source gives them in different places.
Key:
[1] = molecular target: T1, full length human PD-L1 expressed on cells (human, UniProt Q9NZQ7 19-290); assay: cell-based or functional assay
[2] = molecular target: T1, full length human PD-L1 expressed on …; assay: FACS competition with CD80/Fc on HEK293/PD-L1 cells
[3] = molecular target: T1, full length human PD-L1 expressed on …; assay: FACS competition with PD-1/Fc on HEK293/PD-L1 cells
[4] = molecular target: T1, full length human PD-L1 expressed on …; assay: cell-based or functional assay; remark: listed apart in the source
[5] = molecular target: T2, human PD-L1-ECD/His (human, UniProt Q9NZQ7 19-238); assay: SPR (BIAcore T-200), Fab, human PD-L1
T2 construct: also called PD-L1/His; human PD-L1/His
Protocol: (§1) For affinity determinations of anti-PD-L1 Fabs, SPR assays were performed using BIAcore™ T-200 (GE Life Sciences). Briefly, human PD-L1/His was coupled to an activated CM5 biosensor chip (Cat. No. BR100530, GE Life Sciences) to achieve approximately 100-200 response units (RU), followed by blocking un-reacted groups with 1 M ethanolamine. A serial dilutions of 0.12 nM to 90 nM Fab samples were injected, mixed into the SPR running buffer (10 mM HEPES, 150 mM NaCl, 0.05% Tween20, pH7.4) at 30 µL/minute, and binding responses on human PD-L1/His were calculated by substracting of RU from a blank flow-cell. Association rates (kₒₙ) and dissociation rates (koff) were calculated using the one-to-one Langmuir binding model (BIA Evaluation Software, GE Life Sciences). The equilibrium dissociation constant (Kd) was calculated as the ratio koff/kₒₙ.
(§2) For affinity determinations of anti-PD-L1 Fabs, SPR assays were conducted using BIAcore™ T-200 instrument (GE Life Sciences, Shanghai, China) as described earlier. Association rates (kₒₙ) and dissociation rates (koff) were calculated using the one-to-one Langmuir binding model (BIA Evaluation Software, GE Life Sciences). The equilibrium dissociation constant (Kd) was calculated as the ratio koff/kₒₙ.

[6] = molecular target: T3, cynomolgus monkey PD-L1/His (cynomolgus monkey (Macaca fascicularis), UniProt G7PSE7 19-239); assay: SPR (BIAcore T-200), Fab, monkey PD-L1
T3 construct: not shown: His tag

[7] = molecular target: T1, full length human PD-L1 expressed on …; assay: FACS competition with CD80/Fc on HEK293/PD-L1 cells; remark: listed apart in the source
[8] = molecular target: T1, full length human PD-L1 expressed on …; assay: FACS competition with PD-1/Fc on HEK293/PD-L1 cells; remark: listed apart in the source
[9] = molecular target: T2, human PD-L1-ECD/His; assay: SPR (BIAcore T-200), PD-L1/His on CM5 chip, Fab injected
Protocol: as §1

[10] = molecular target: T2, human PD-L1-ECD/His; assay: SPR (BIAcore T-200), Fab, human PD-L1; koff may be too slow to measure
Protocol: as §1, §2

[11] = molecular target: T3, cynomolgus monkey PD-L1/His; assay: SPR (BIAcore T-200), Fab, monkey PD-L1; koff may be too slow to measure
[12] = molecular target: T2, human PD-L1-ECD/His; assay: SPR (BIAcore T-200), PD-L1/His on CM5 chip, Fab injected; koff may be too slow to measure
Protocol: as §1

[13] = molecular target: T3, cynomolgus monkey PD-L1/His; assay: ELISA, 200 ng PD-L1 protein coated per well
Protocol: The monkey PD-L1/His and murine PD-L1/His were expressed and purified in a similar way to the human PD-L1/His as described earlier. […] The synthesized full length mAb was named as Y1-IgG1mc. The ELISA assay was performed essentially in the same way as described in the previous section. Briefly, 200 ng of PD-L1 protein was coated on each well of Nunc MaxiSorp ELISA plate (Cat. No. 442404, Nunc, Thermo Fisher). After washing and blocking, indicated concentrations of anti-PD-L1 mAbs were added and incubated at room temperature for 1 hour. After washing, the bound anti-PD-L1 mAbs were detected using a HRP-conjugated goat anti-human Fc antibody (Cat. No. A0170, Sigma).

T3 sequence (G7PSE7 entry or part of it): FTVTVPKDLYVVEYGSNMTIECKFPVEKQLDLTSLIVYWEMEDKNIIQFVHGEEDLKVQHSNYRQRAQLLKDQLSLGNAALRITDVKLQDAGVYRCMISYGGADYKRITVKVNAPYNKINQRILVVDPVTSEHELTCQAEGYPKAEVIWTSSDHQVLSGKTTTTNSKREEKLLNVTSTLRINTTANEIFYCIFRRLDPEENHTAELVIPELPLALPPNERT
T1 sequence (Q9NZQ7 19-290 limits assumed): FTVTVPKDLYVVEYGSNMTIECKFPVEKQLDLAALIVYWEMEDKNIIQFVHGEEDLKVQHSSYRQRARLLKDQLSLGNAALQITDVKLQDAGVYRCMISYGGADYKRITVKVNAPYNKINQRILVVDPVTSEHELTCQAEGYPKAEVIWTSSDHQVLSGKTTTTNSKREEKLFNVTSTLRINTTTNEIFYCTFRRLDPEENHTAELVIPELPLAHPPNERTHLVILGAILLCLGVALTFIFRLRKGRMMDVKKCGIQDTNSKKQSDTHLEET
T2 sequence (Q9NZQ7 19-238): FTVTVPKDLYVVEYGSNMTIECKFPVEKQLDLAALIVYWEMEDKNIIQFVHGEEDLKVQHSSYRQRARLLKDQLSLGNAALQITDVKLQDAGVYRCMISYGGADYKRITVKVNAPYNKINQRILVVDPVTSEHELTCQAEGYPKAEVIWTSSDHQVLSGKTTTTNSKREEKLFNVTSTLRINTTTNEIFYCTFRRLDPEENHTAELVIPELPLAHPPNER

B1: hu333-1A Fab (Fab)
heavy (part 1 of 2): EVQLVESGGGLVQPGGSLRLSCAVSGFSLTSYGVHWVRQAPGKGLEWVAVIWAGGSTNYNSALMSRLTISKDNAKNSVYLQMNSLRAEDTAVYYCAKPYGNSAMDYWGQGTLVTVSS
heavy (part 2 of 2): HHHHHHHH
light: DIQMTQSPSTLSASVGDRVTITCKASQDVGIVVAWYQQKPGKAPKLLIYWASIRHTGVPSRFSGSGSGTEFTLTISSLQPDDFATYYCQQYSNYPLYTFGQGTKLEIK
notes: not shown: human IgG2 CH1 (printed IgG2a-CH1); human constant region of kappa chain
IL-2 release in HuT78/P3Z, IC50 [1]: 0.012 µg/mL
IL-2 release in HuT78/PD-1, EC50 [1]: 0.066 µg/mL
IC50 [2]: 0.049 µg/mL
IC50 [3]: 0.057 µg/mL

B2: hu333-4A2 Fab (Fab)
heavy (part 1 of 2): B1 heavy (part 1 of 2) with N60V, S61D, A62S, L63V, M64K, S65G, L67F, S77T, N101T
heavy (part 2 of 2): HHHHHH
light: B1 light with T10S, L105V
notes: not shown: human IgG1-CH1; human constant region of kappa chain
IL-2 release in HuT78/P3Z, IC50 [4]: 0.005 µg/mL
IL-2 release in HuT78/PD-1, EC50 [4]: 0.05 µg/mL
Kd [5]: 2.65 pM
kon [5]: 3.88e+06 M⁻¹ s⁻¹
Kd [6]: 2.91 pM
kon [6]: 3.19e+06 M⁻¹ s⁻¹
IC50 [7]: 0.045 µg/mL
IC50 [8]: 0.05 µg/mL
Kd [9]: 2.65 pM
kon [9]: 3.88e+06 M⁻¹ s⁻¹
koff [10]: 1.03e-05 s⁻¹
koff [11]: 9.3e-06 s⁻¹
koff [12]: 1.03e-05 s⁻¹

B3: hu333-4B2 Fab (Fab)
heavy (part 1 of 2): EVQLVESGGGLVQPGGSLRLSCAVSGFSLTSYGVHWVRQAPGKGLEWVAVIWAGGSTNYADSVKGRFTISKDTSKNTVYLQMNSLRAEDTAVYYCAKPYGTSAMDYWGQGTLVTVSS
heavy (part 2 of 2): HHHHHH
light: B1 light with T10S, L105V
notes: as for B2
IL-2 release in HuT78/P3Z, IC50 [4]: 0.016 µg/mL
IL-2 release in HuT78/PD-1, EC50 [4]: 0.058 µg/mL
Kd [5]: 3.5 pM
kon [5]: 3.78e+06 M⁻¹ s⁻¹
Kd [6]: 2.5 pM
kon [6]: 3.2e+06 M⁻¹ s⁻¹
IC50 [7]: 0.062 µg/mL
IC50 [8]: 0.053 µg/mL
Kd [9]: 3.5 pM
kon [9]: 3.78e+06 M⁻¹ s⁻¹
koff [10]: 1.32e-05 s⁻¹
koff [11]: 8e-06 s⁻¹
koff [12]: 1.32e-05 s⁻¹

B4: hu333-4B2-IgG1mc (antibody)
heavy: EVQLVESGGGLVQPGGSLRLSCAVSGFSLTSYGVHWVRQAPGKGLEWVAVIWAGGSTNYADSVKGRFTISKDTSKNTVYLQMNSLRAEDTAVYYCAKPYGTSAMDYWGQGTLVTVSSASTKGPSVFPLAPSSKSTSGGTAALGCLVKDYFPEPVTVSWNSGALTSGVHTFPAVLQSSGLYSLSSVVTVPSSSLGTQTYICNVNHKPSNTKVDKKVEPKSCDKTHTCPPCPAPPAAAPSVFLFPPKPKDTLMISRTPEVTCVVVDVSHEDPEVKFNWYVDGVEVHNAKTKPREEQYNSTYRVVSVLTVLHQDWLNGKEYKCKVSNKALAAPIEKTISKAKGQPREPQVYTLPPSRDELTKNQVSLTCLVKGFYPSDIAVEWESNGQPENNYKTTPPVLDSDGSFFLYSKLTVDKSRWQQGNVFSCSVMHEALHNHYTQKSLSLSPGK
light: DIQMTQSPSSLSASVGDRVTITCKASQDVGIVVAWYQQKPGKAPKLLIYWASIRHTGVPSRFSGSGSGTEFTLTISSLQPDDFATYYCQQYSNYPLYTFGQGTKVEIKRTVAAPSVFIFPPSDEQLKSGTASVVCLLNNFYPREAKVQWKVDNALQSGNSQESVTEQDSKDSTYSLSSTLTLSKADYEKHKVYACEVTHQGLSSPVTKSFNRGEC
notes: also called hu333-4B2-IgGlmc
binding result [13]: binds

B5: hu333-4B2-IgG1mf (antibody)
heavy: B4 heavy with A236G
light: B4 light
binding result [13]: binds

B6: hu333-4A2-IgG1mc (antibody)
heavy: B4 heavy with A60V, T73N, S74A
light: B4 light
notes: also called hu333-4A2-IgGlmc
binding result [13]: binds

Source: patent US20230279117A1 (published 2023)
